Experimental data reported in patent US20090175786A1 (published 2009).
Where two headings read alike, the source gives them in different places. One block for each binder: values may come before it. Where no end group is shown, it is not given here. [ ]: non-standard residue; d: D form. The star is where a group is joined. DOTA = O=C(O)CN1CCN(CC(=O)O)CCN(CC(=O)*)CCN(CC(=O)O)CC1; 4Abz = Nc1ccc(C(=O)O)cc1; Dap = NC[C@H](N)C(=O)O; AEEA = NCCOCCOCC(=O)O; Me2Gly = CN(C)CC(=O)*; Acm = CC(=O)NC*

Key:
[1] = target: T1, bombesin receptor subtype 3 (BB3-R), human (human, UniProt P32247 1-399); experiment: receptor autoradiography on human tumour sections
T1 construct: whole, on cells; tissue sections, receptor autoradiography
T1 sequence (looked up): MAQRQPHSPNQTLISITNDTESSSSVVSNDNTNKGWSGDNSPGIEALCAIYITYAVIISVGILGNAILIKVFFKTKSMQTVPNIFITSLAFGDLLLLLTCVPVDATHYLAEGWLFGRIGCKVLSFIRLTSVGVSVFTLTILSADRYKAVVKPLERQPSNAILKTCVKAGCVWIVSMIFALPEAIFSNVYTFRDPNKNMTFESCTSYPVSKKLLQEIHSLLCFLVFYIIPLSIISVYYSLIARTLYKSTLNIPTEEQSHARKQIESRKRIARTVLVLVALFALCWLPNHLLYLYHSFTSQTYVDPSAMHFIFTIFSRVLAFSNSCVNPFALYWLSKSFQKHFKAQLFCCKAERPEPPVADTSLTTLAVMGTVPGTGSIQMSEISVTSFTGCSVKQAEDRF
Excerpt: Human ileal carcinoid tissue was used as a source for NMB-R, human prostate carcinoma for GRP-R and human bronchial carcinoid for BB3-R subtype receptors.

[2] = target: T2, gastrin releasing peptide receptor (GRP-R), human (human, UniProt P30550 1-384); experiment: 125I-BBN competition, PC3 cells
T2 construct: whole, on cells; also called GRP receptor; GRP-preferring receptor
T2 sequence (P30550 whole entry): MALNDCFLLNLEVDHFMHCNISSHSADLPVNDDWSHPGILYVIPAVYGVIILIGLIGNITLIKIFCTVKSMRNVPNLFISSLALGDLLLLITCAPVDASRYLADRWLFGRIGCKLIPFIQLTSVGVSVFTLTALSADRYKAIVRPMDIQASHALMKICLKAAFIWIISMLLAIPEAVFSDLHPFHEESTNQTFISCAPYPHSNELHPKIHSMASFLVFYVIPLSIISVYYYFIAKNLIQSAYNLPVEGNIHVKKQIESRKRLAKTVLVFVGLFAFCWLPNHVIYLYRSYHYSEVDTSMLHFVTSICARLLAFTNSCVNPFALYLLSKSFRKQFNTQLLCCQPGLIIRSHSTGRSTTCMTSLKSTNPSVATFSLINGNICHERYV

[3] = target: T3, neuromedin-B preferring receptor (NMB-R) of C6 rodent glioblastoma cells (rodent, UniProt P24053 1-390, limits assumed); experiment: 125I-NMB competition, C6 cells
T3 construct: whole, on cells; also called C6/NMB-R
T3 sequence (looked up): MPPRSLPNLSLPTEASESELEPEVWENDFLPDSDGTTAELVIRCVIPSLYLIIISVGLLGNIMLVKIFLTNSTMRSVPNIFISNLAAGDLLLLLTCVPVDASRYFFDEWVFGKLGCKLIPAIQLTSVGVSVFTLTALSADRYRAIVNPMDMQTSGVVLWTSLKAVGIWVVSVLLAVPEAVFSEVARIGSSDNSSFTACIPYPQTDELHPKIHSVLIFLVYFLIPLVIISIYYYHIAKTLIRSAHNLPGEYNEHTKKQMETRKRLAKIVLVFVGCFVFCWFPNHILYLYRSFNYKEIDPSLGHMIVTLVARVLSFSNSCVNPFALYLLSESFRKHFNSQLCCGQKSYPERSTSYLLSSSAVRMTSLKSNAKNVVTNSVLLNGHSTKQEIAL
Description: The binding parameters obtained from the studies were analyzed using a one-site competition non-linear regression analysis with GraphPad Prism.

[4] = target: T3, neuromedin-B preferring receptor …; experiment: 125I-NMB competition, C6 cells; remark: listed apart in the source
[5] = target: T2, gastrin releasing peptide receptor …; experiment: 125I-BBN competition, PC3 cells; remark: listed apart in the source
Description: (§1) All compounds tested were dissolved in binding buffer and appropriate dilutions were also done in binding buffer. PC3 cells for assay were seeded at a concentration of 2.0×10⁴/well either in 96-well black/clear collagen I cellware plates (Beckton Dickinson Biocoat). Plates were used for binding studies on day 2 post-plating. The plates were checked for confluency (>90% confluent) prior to assay. […] The studies were conducted with an assay volume of 75 μL per well. Triplicate wells were used for each data point. After the addition of the appropriate solutions, plates were incubated for 1 hour at 4° C. Incubation was ended by the addition of 200 μL of ice-cold incubation buffer. Plates were washed 5 times and blotted dry. Radioactivity was detected using either a LKB CompuGamma counter or a microplate scintillation counter.

[6] = target: T2, gastrin releasing peptide receptor …; experiment: 125I-BBN competition, PC3 cells; remark: listed apart in the source
Description: as §1

[7] = target: T2, gastrin releasing peptide receptor …; experiment: 125I-BBN competition, PC3 cells; remark: listed apart in the source
[8] = target: T2, gastrin releasing peptide receptor …; experiment: displacement of 125I-universal ligand, human tumour sections

B2: N,N-dimethylglycine-Ser-Cys(Acm)-Gly-8-amino-3,6-dioxaoctanoic acid-Arg-Gly-BBN(7-14) (peptide)
peptide: RGQWAVGHLM
modifications: N-terminus: N,N-dimethylglycine-Ser-Cys(Acm)-Gly-8-amino-3,6-dioxaoctanoic acid; C-terminal amide
notes: same M-N-O-P-G as printed for L22, other MS; also called L57
- IC50 [2]: 50 nM

Binder: {DOTA}-G[4Abz]LWATGHFM-NH2 (also called L227) [DO3A-monoamide-G-Abz4-LWATGHFM-NH2]
- IC50 [3]: 0.8 nM
- IC50 [4]: 0.07 nM

B3: DO3A-monoamide-G-Abz4-QWAGHFL-NH2 (peptide)
peptide: {DOTA}-G[4Abz]QWAGHFL-NH2
SMILES: CC(C)C[C@H](NC(=O)[C@H](Cc1ccccc1)NC(=O)[C@H](Cc1c[nH]cn1)NC(=O)CNC(=O)[C@H](C)NC(=O)[C@H](Cc1c[nH]c2ccccc12)NC(=O)[C@H](CCC(N)=O)NC(=O)c1ccc(NC(=O)CNC(=O)CN2CCN(CC(=O)O)CCN(CC(=O)O)CCN(CC(=O)O)CC2)cc1)C(N)=O
notes: also called L224
- IC50 [5]: > 500 nM
- IC50 [6]: > 500 nM

B4: N,N-dimethylglycine-Ser-Cys(Acm)-Gly-2,3-diaminopropionic acid-8-amino-3,6-dioxaoctanoic acid-Gly-BBN(7-14) (peptide)
peptide: {Me2Gly-Ser-Cys(Acm)}-G[Dap][AEEA]GQWAVGHLM-NH2
notes: same M-N-O-P-G as printed for L61, other MS; also called L26
- IC50 [2]: 30 nM

B5: N,N-dimethylglycine-Ser-Cys(Acm)-Gly-SS-QWAVGHLM-NH2 (peptide)
peptide: [Me2Gly]SC(Acm)GSSQWAVGHLM-NH2
SMILES: CSCC[C@H](NC(=O)[C@H](CC(C)C)NC(=O)[C@H](Cc1c[nH]cn1)NC(=O)CNC(=O)[C@@H](NC(=O)[C@H](C)NC(=O)[C@H](Cc1c[nH]c2ccccc12)NC(=O)[C@H](CCC(N)=O)NC(=O)[C@H](CO)NC(=O)[C@H](CO)NC(=O)CNC(=O)[C@H](CSCNC(C)=O)NC(=O)[C@H](CO)NC(=O)CN(C)C)C(C)C)C(N)=O
- IC50 [7]: 10 nM

B9: N,N-dimethylglycine-Ser-Cys(Acm)-Gly-8-amino-3,6-dioxaoctanoic acid-Arg-BBN(7-14) (peptide)
peptide: RQWAVGHLM
modifications: N-terminus: N,N-dimethylglycine-Ser-Cys(Acm)-Gly-8-amino-3,6-dioxaoctanoic acid; C-terminal amide
notes: also called L9
- IC50 [2]: 6 nM

B10: N,N-dimethylglycine-Ser-Cys(Acm)-Gly-8-amino-3,6-dioxaoctanoic acid-Asp-BBN(7-14) (peptide)
peptide: DQWAVGHLM
modifications: N-terminus: N,N-dimethylglycine-Ser-Cys(Acm)-Gly-8-amino-3,6-dioxaoctanoic acid; C-terminal amide
notes: also called L10
- IC50 [2]: > 50 nM

B11: N,N-dimethylglycine-Ser-Cys(Acm)-Gly-8-amino-3,6-dioxaoctanoic acid-Lys-BBN(7-14) (peptide)
peptide: KQWAVGHLM
modifications: N-terminus: N,N-dimethylglycine-Ser-Cys(Acm)-Gly-8-amino-3,6-dioxaoctanoic acid; C-terminal amide
notes: also called L8
- IC50 [2]: 4 nM

B14: N,N-dimethylglycine-Ser-Cys(Acm)-Gly-8-amino-3,6-dioxaoctanoic acid-Glu-BBN(7-14) (peptide)
peptide: EQWAVGHLM
modifications: N-terminus: N,N-dimethylglycine-Ser-Cys(Acm)-Gly-8-amino-3,6-dioxaoctanoic acid; C-terminal amide
notes: also called L13
- IC50 [2]: > 50 nM

The remaining lines, values ahead:

- binding result [1]: no binding
B1: ^177Lu-L70 (peptide)
peptide: QWAVGHLM
modifications: N-terminus: 177Lu complex of DO3A-monoamide-Gly-4-aminobenzoic acid; C-terminal amide
notes: also called Lutetium complex of L70

- IC50 [3]: 60 nM
B6: N,N-dimethylglycine-Ser-Cys(Acm)-Gly-KE-QWAVGHLM-NH2 (peptide)
peptide: [Me2Gly]SC(Acm)GKEQWAVGHLM-NH2
SMILES: CSCC[C@H](NC(=O)[C@H](CC(C)C)NC(=O)[C@H](Cc1c[nH]cn1)NC(=O)CNC(=O)[C@@H](NC(=O)[C@H](C)NC(=O)[C@H](Cc1c[nH]c2ccccc12)NC(=O)[C@H](CCC(N)=O)NC(=O)[C@H](CCC(=O)O)NC(=O)[C@H](CCCCN)NC(=O)CNC(=O)[C@H](CSCNC(C)=O)NC(=O)[C@H](CO)NC(=O)CN(C)C)C(C)C)C(N)=O

- IC50 [3]: 2 nM
B7: N,N-dimethylglycine-Ser-Cys(Acm)-Gly-SR-QWAVGHLM-NH2 (peptide)
peptide: [Me2Gly]SC(Acm)GSRQWAVGHLM-NH2
SMILES: CSCC[C@H](NC(=O)[C@H](CC(C)C)NC(=O)[C@H](Cc1c[nH]cn1)NC(=O)CNC(=O)[C@@H](NC(=O)[C@H](C)NC(=O)[C@H](Cc1c[nH]c2ccccc12)NC(=O)[C@H](CCC(N)=O)NC(=O)[C@H](CCCNC(=N)N)NC(=O)[C@H](CO)NC(=O)CNC(=O)[C@H](CSCNC(C)=O)NC(=O)[C@H](CO)NC(=O)CN(C)C)C(C)C)C(N)=O

- IC50 [7]: 2 nM
Binder: [Me2Gly]SC(Acm)GSKQWAVGHLM-NH2 [N,N-dimethylglycine-Ser-Cys(Acm)-Gly-SK-QWAVGHLM-NH2]

- IC50 [8]: 0.8 nM
B8: ^175Lu-L70 (peptide)
peptide: QWAVGHLM
modifications: N-terminus: 175Lu complex of DO3A-monoamide-Gly-4-aminobenzoic acid; C-terminal amide

- IC50 [3]: > 800 nM
- IC50 [4]: > 800 nM
Binder: WAVGHLM-NH2 (also called BBN8-14) [WAVGHLM-NH2]

- IC50 [2]: > 50 nM
B12: N,N-dimethylglycine-Ser-Cys(Acm)-Gly-N-1-piperazineacetic acid-Asp-BBN(7-14) (peptide)
peptide: DQWAVGHLM
modifications: N-terminus: N,N-dimethylglycine-Ser-Cys(Acm)-Gly-N-1-piperazineacetic acid; C-terminal amide
notes: also called L33

- IC50 [2]: > 50 nM
B13: N,N-dimethylglycine-Ser-Cys(Acm)-Gly-N-4-aminoethyl-N-1-piperazineacetic acid-Asp-BBN(7-14) (peptide)
peptide: DQWAVGHLM
modifications: N-terminus: N,N-dimethylglycine-Ser-Cys(Acm)-Gly-N-4-aminoethyl-N-1-piperazineacetic acid; C-terminal amide
notes: also called L27
